Experimental data as given in PMC6778039.

Target: T1, ^35S-IRF3, Q14653
T1 chain: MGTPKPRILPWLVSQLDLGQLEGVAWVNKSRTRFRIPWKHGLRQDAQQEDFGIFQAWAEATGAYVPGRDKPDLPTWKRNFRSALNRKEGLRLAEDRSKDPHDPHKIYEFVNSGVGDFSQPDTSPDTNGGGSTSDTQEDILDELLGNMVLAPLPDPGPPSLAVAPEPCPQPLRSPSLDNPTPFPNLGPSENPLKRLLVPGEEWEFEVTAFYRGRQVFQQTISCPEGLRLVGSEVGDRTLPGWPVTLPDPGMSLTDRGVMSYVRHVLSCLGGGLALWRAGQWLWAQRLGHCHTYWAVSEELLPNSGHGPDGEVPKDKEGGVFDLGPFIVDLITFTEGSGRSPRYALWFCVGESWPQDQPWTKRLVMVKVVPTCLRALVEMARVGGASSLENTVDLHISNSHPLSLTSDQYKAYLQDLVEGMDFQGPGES
Assay: native gel or EMSA
Settings: remark: other sources report otherwise

stoichiometry N: 2
B1: ^35S-IRF3, Q14653 1-427 (natural protein)
chain: T1 chain
modifications: here or on the partner: 35S label; 35S label
